Results published in article PMC6194501, “A chemical reporter facilitates the detection and identification of lysine HMGylation on histones† †Electronic supplementary information (ESI) available: Experimental methods and figures. See DOI: 10.1039/c8sc02483a” (Chemical Science, 2018).
Starred links: 1 amine or outer side, 2 acyl side, 3 side chain; linkers in the order of their positions; H or OH if unused. No end group written: not given here. Glutaryl = O=C(CCCC(=O)[*:2])[*:1]

T1: human Sirt5 (human, UniProt Q9NXA8 37-310)
T1 construct: Sirt5 (sirtuin 5), human; the ESI (experimental methods) may tell them; also called sirtuin 5
T1 sequence (looked up): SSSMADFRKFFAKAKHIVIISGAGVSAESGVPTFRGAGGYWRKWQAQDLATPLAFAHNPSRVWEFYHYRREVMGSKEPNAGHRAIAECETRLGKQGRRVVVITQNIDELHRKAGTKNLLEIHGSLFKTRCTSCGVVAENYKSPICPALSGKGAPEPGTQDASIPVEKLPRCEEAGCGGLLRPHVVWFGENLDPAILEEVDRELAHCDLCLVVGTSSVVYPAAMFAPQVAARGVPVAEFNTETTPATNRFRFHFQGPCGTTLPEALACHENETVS


Each binder was assayed against T1, human Sirt5 (assay: ITC; isothermal titration calorimetry of Sirt5 with H3K9 acyl peptides; which partner was titrated and the conditions are not told in the text shown). Details: both partners purified.

Row | Kd [µM] | Binder
1 | 61.7 | KQTARK(HMG)STGGKA [histone H3 peptide carrying an HMG mark at Lys9]
2 | 35 | ARTKQTARKSTGGKA (malonyl-lysine (Kmal) at Lys9) [H3K9mal]
3 | 12.6 | KQTARK(Glutaryl)STGGKA [H3K9glu]
